Assay results taken from patent US20230330196.

Molecular target: programmed death-1 homolog (PD-1H) of mouse mononuclear bone marrow cells (UniProt Q9D659)
Sequence (Q9D659 33-308): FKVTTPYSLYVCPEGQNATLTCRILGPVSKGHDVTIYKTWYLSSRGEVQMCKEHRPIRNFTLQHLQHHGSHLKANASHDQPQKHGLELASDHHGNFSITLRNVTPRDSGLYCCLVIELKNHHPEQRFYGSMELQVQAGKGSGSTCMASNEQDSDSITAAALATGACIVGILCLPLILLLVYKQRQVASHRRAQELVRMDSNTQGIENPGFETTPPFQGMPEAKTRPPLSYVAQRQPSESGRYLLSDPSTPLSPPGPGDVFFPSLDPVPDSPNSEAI

## MMP-13 (added to mouse osteoclast cultures)
  OCL fusion and activation, ERK1/2 phosphorylation, NFATc1 and DC-STAMP upregulation in Pd-1h-/- versus WT OCLs: While MMP-13 induced WT OCL fusion and activation, these effects were completely blocked in Pd-1h-/- OCLs in tandem with a loss in MMP-13 induced ERK1/2 phosphorylation, NFATc1 and DC-STAMP upregulation
